In article PMC2685030, “SmCL3, a Gastrodermal Cysteine Protease of the Human Blood Fluke Schistosoma mansoni” (PLoS Neglected Tropical Diseases, 2009):

Test system: Cc1cc(=O)oc2cc(NC(=O)[C@H](CCCNC(=N)N)NC(=O)[C@H](Cc3ccccc3)NC(=O)OCc3ccccc3)ccc12
Experiment: purified protein
Conditions: pH 6.0 citrate-phosphate, 25°C, 3 nM enzyme

SmCL3 (Schistosoma mansoni) showed a Km of 20.2 µM.
